{
  "source": "paper PMC1874666",
  "about": "(Nucleic Acids Research, 2007)",
  "target": "the molecule itself",
  "assay": "AUC",
  "data": [
    {"protein": "Helicobacter pylori neutrophil-activating protein (HP-NAP) (natural protein, UniProt P43313 1-144, looked up) MKTFEILKHLQADAIVLFMKVHNFHWNVKGTDFFNVHKATEEIYEEFADMFDDLAERIVQLGHHPLVTLSEAIKLTRVKEETKTSFHSKDIFKEILEDYKYLEKEFKELSNTAEKEGDKVTVTYADDQLAKLQKSIWMLQAHLA", "values": [
      {"measurement": "stoichiometry N", "value": 12}
    ]}
  ]
}
